Measurements from patent publication US20250339531A1, “DUX4 POLYPEPTIDES AND NUCLEIC ACIDS FOR TREATING INFLAMMATORY AND AUTOIMMUNE CONDITIONS” (Fred Hutchinson Cancer Center, priority 2021, published 2025).

Test system: proteins that co-immunoprecipitated with DUX4-CTD constructs expressed in MB135 myoblasts
Assay: LC-MS of proteins co-immunoprecipitated with DUX4-CTD (Table 1) and western validation
Format: binding, human
Design: key to 4. mL1dL2 + Dox + IFNG / 4. + IFNG mix / 4. longCTD + Dox + IFNG / 3. + IFNg + Dox longCTD / 3. + Dox longCTD / 3. + IFNG longCTD: peptide-spectrum matches (PSMs) per protein
Conditions: for 3. + IFNg + Dox longCTD / 3. + Dox longCTD: bait longCTD; for 3. + IFNg + Dox longCTD: experiment 3, IFNg + Dox; for SUM of PSMS: sum over all samples; for 4. longCTD + Dox + IFNG: LC-MS counts of the listed protein co-immunoprecipitated with DUX4-CTD bait longCTD; for 3. + Dox longCTD: experiment 3, Dox only
Outline: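 FLAG-tagged DUX4-CTD expressed in doxycycline-induced MB135 myoblasts, some also IFNG-treated; nuclear lysates in pH 7.4 NP-40 IP buffer were pre-cleared, then anti-FLAG immunoprecipitated 3 h at 4 °C. For LC-MS, FLAG-peptide elution, in-gel trypsin digest, Orbitrap analysis; proteins with ≥2 PSMs in both experiments categorised and ranked by total PSMs.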

[1] = LC-MS counts of the listed protein co-immunoprecipitated with DUX4-CTD bait mL1dL2, experiment 4, Dox + IFNG
[2] = LC-MS value per protein co-immunoprecipitated from MB135 myoblasts, + IFNG mix sample (no Dox), kind of count not given
[3] = LC-MS value per protein co-immunoprecipitated with DUX4-CTD construct mL1dL2 in MB135 myoblasts, + Dox + IFNG, kind of count not given
[4] = LC-MS counts of the listed protein in anti-FLAG co-IP, experiment 4, IFNG, no doxycycline, mix, MB135 myoblasts

Molecule | 4. mL1dL2 + Dox + IFNG [1] | 3. + IFNg + Dox longCTD | SUM of PSMS | 4. + IFNG mix [2] | 4. mL1dL2 + Dox + IFNG [3] | 4. longCTD + Dox + IFNG (experiment 4, Dox + IFNG) | 4. + IFNG mix [4] | 3. + Dox longCTD
P04844 (protein, UniProt P04844 1-631, looked up, full-length) MAPPGSSTVFLLALTIIASTWALTPTHYLTKHDVERLKASLDRPFTNLESAFYSIVGLSSLGAQVPDAKKACTYIRSNLDPSNVDSLFYAAQASQALSGCEISISNETKDLLLAAVSEDSSVTQIYHAVAALSGFGLPLASQEALSALTARLSKEETVLATVQALQTASHLSQQADLRSIVEEIEDLVARLDELGGVYLQFEEGLETTALFVAATYKLMDHVGTEPSIKEDQVIQLMNAIFSKKNFESLSEAFSVASAAAVLSHNRYHVPVVVVPEGSASDTHEQAILRLQVTNVLSQPLTQATVKLEHAKSVASRATVLQKTSFTPVGDVFELNFMNVKFSSGYYDFLVEVEGDNRYIANTVELRVKISTEVGITNVDLSTVDKDQSIAPKTTRVTYPAKAKGTFIADSHQNFALFFQLVDVNTGAELTPHQTFVRLHNQKTGQEVVFVAEPDNKNVYKFELDTSERKIEFDSASGTYTLYLIIGDATLKNPILWNVADVVIKFPEEEAPSTVLSQNLFTPKQEIQHLFREPEKRPPTVVSNTFTALILSPLLLLFALWIRIGANVSNFTFAPSTIIFHLGHAAMLGLMYVYWTQLNMFQTLKYLAILGSVTFLAGNRMLAQQAVKRTAH | 3 | 4 | 7 | – | – | – | – | –
SERPINH1 (protein) AEVKKPAAAAAPGTAEKLSPKAATLAERSAGLAFSLYQAMAKDQAVENILVSPVVVASSLGLVSLGGKATTASQAKAVLSAEQLRDEEVHAGLGELLRSLSNSTARNVTWKLGSRLYGPSSVSFADDFVRSSKQHYNCEHSKINFRDKRSALQSINEWAAQTTDGKLPEVTKDVERTDGALLVNAMFFKPHWDEKFHHKMVDNRGFMVTRSYTVGVMMMHRTGLYNYYDDEKEKLQIVEMPLAHKLSSLIILMPHHVEPLERLEKLLTKEQLKIWMGKMQKKAVAISLPKGVVEVTHDLQKHLAGLGLTEAIDKNKADLSRMSGKKDLYLASVFHATAFELDTDGNPFDQDIYGREELRSPKLFYADHPFIFLVRDTQSGSLLFIGRLVRPKGDKMRDEL | – | – | – | 5 | 5 | – | – | –
P31947 (protein, UniProt P31947 1-248, looked up, full-length) MERASLIQKAKLAEQAERYEDMAAFMKGAVEKGEELSCEERNLLSVAYKNVVGGQRAAWRVLSSIEQKSNEEGSEEKGPEVREYREKVETELQGVCDTVLGLLDSHLIKEAGDAESRVFYLKMKGDYYRYLAEVATGDDKKRIIDSARSAYQEAMDISKKEMPPTNPIRLGLALNFSVFHYEIANSPEEAISLAKTTFDEAMADLHTLSEDSYKDSTLIMQLLRDNLTLWTADNAGEEGGEAPQEPQS | – | 1 | 8 | – | – | 6 | 1 | –
O95373 (protein, UniProt O95373 1-1038, looked up, full-length) MDPNTIIEALRGTMDPALREAAERQLNEAHKSLNFVSTLLQITMSEQLDLPVRQAGVIYLKNMITQYWPDRETAPGDISPYTIPEEDRHCIRENIVEAIIHSPELIRVQLTTCIHHIIKHDYPSRWTAIVDKIGFYLQSDNSACWLGILLCLYQLVKNYEYKKPEERSPLVAAMQHFLPVLKDRFIQLLSDQSDQSVLIQKQIFKIFYALVQYTLPLELINQQNLTEWIEILKTVVNRDVPNETLQVEEDDRPELPWWKCKKWALHILARLFERYGSPGNVSKEYNEFAEVFLKAFAVGVQQVLLKVLYQYKEKQYMAPRVLQQTLNYINQGVSHALTWKNLKPHIQGIIQDVIFPLMCYTDADEELWQEDPYEYIRMKFDVFEDFISPTTAAQTLLFTACSKRKEVLQKTMGFCYQILTEPNADPRKKDGALHMIGSLAEILLKKKIYKDQMEYMLQNHVFPLFSSELGYMRARACWVLHYFCEVKFKSDQNLQTALELTRRCLIDDREMPVKVEAAIALQVLISNQEKAKEYITPFIRPVMQALLHIIRETENDDLTNVIQKMICEYSEEVTPIAVEMTQHLAMTFNQVIQTGPDEEGSDDKAVTAMGILNTIDTLLSVVEDHKEITQQLEGICLQVIGTVLQQHVLEFYEEIFSLAHSLTCQQVSPQMWQLLPLVFEVFQQDGFDYFTDMMPLLHNYVTVDTDTLLSDTKYLEMIYSMCKKVLTGVAGEDAECHAAKLLEVIILQCKGRGIDQCIPLFVEAALERLTREVKTSELRTMCLQVAIAALYYNPHLLLNTLENLRFPNNVEPVTNHFITQWLNDVDCFLGLHDRKMCVLGLCALIDMEQIPQVLNQVSGQILPAFILLFNGLKRAYACHAEHENDSDDDDEAEDDDETEELGSDEDDIDEDGQEYLEILAKQAGEDGDDEDWEEDDAEETALEGYSTIIDDEDNPVDEYQIFKAIFQTIQNRNPVWYQALTHGLNEEQRKQLQDIATLADQRRAAHESKMIEKHGGYKFSAPVVPSSFNFGGPAPGMN | 3 | 8 | 16 | – | – | 1 | – | 4
ASPH (protein) MAQRKNAKSSGNSSSSGSGSGSTSAGSSSPGARRETKHGGHKNGRKGGLSGTSFFTWFMVIALLGVWTSVAVVWFDLVDYEEVLGKLGIYDADGDGDFDVDDAKVLLGLKERSTSEPAVPPEEAEPHTEPEEQVPVEAEPQNIEDEAKEQIQSLLHEMVHAEHVEGEDLQQEDGPTGEPQQEDDEFLMATDVDDRFETLEPEVSHEETEHSYHVEETVSQDCNQDMEEMMSEQENPDSSEPVVEDERLHHDTDDVTYQVYEEQAVYEPLENEGIEITEVTAPPEDNPVEDSQVIVEEVSIFPVEEQQEVPPETNRKTDDPEQKAKVKKKKPKLLNKFDKTIKAELDAAEKLRKRGKIEEAVNAFKELVRKYPQSPRARYGKAQCEDDLAEKRRSNEVLRGAIETYQEVASLPDVPADLLKLSLKRRSDRQQFLGHMRGSLLTLQRLVQLFPNDTSLKNDLGVGYLLIGDNDNAKKVYEEVLSVTPNDGFAKVHYGFILKAQNKIAESIPYLKEGIESGDPGTDDGRFYFHLGDAMQRVGNKEAYKWYELGHKRGHFASVWQRSLYNVNGLKAQPWWTPKETGYTELVKSLERNWKLIRDEGLAVMDKAKGLFLPEDENLREKGDWSQFTLWQQGRRNENACKGAPKTCTLLEKFPETTGCRRGQIKYSIMHPGTHVWPHTGPTNCRLRMHLGLVIPKEGCKIRCANETKTWEEGKVLIFDDSFEHEVWQDASSFRLIFIVDVWHPELTPQQRRSLPAI | – | – | – | – | 1 | – | – | –
PDIA3 (protein) SDVLELTDDNFESRISDTGSAGLMLVEFFAPWCGHCKRLAPEYEAAATRLKGIVPLAKVDCTANTNTCNKYGVSGYPTLKIFRDGEEAGAYDGPRTADGIVSHLKKQAGPASVPLRTEEEFKKFISDKDASIVGFFDDSFSEAHSEFLKAASNLRDNYRFAHTNVESLVNEYDDNGEGIILFRPSHLTNKFEDKTVAYTEQKMTSGKIKKFIQENIFGICPHMTEDNKDLIQGKDLLIAYYDVDYEKNAKGSNYWRNRVMMVAKKFLDAGHKLNFAVASRKTFSHELSDFGLESTAGEIPVVAIRTAKGEKFVMQEEFSRDGKALERFLQDYFDGNLKRYLKSEPIPESNDGPVKVVVAENFDEIVNNENKDVLIEFYAPWCGHCKNLEPKYKELGEKLSKDPNIVIAKMDATANDVPSPYEVRGFPTIYFSPANKKLNPKKYEGGRELSDFISYLQREATNPPVIQEEKPKKKKKAQEDL | – | – | – | 9 | 3 | – | – | –
HNRNPH1 (protein) MMLGTEGGEGFVVKVRGLPWSCSADEVQRFFSDCKIQNGAQGIRFIYTREGRPSGEAFVELESEDEVKLALKKDRETMGHRYVEVFKSNNVEMDWVLKHTGPNSPDTANDGFVRLRGLPFGCSKEEIVQFFSGLEIVPNGITLPVDFQGRSTGEAFVQFASQEIAEKALKKHKERIGHRYIEIFKSSRAEVRTHYDPPRKLMAMQRPGPYDRPGAGRGYNSIGRGAGFERMRRGAYGGGYGGYDDYNGYNDGYGFGSDRFGRDLNYCFSGMSDHRYGDGGSTFQSTTGHCVHMRGLPYRATENDIYNFFSPLNPVRVHIEIGPDGRVTGEADVEFATHEDAVAAMSKDKANMQHRYVELFLNSTAGASGGAYEHRYVELFLNSTAGASGGAYGSQMMGGMGLSNQSSYGGPASQQLSGGYGGGYGGQSSMSGYGNQGAVNSSYYSSGSRASMGVNGMGGLSSMSSMSGGWGM | – | – | – | – | 7 | – | – | –
P10809 (protein, UniProt P10809 1-573, looked up, full-length) MLRLPTVFRQMRPVSRVLAPHLTRAYAKDVKFGADARALMLQGVDLLADAVAVTMGPKGRTVIIEQSWGSPKVTKDGVTVAKSIDLKDKYKNIGAKLVQDVANNTNEEAGDGTTTATVLARSIAKEGFEKISKGANPVEIRRGVMLAVDAVIAELKKQSKPVTTPEEIAQVATISANGDKEIGNIISDAMKKVGRKGVITVKDGKTLNDELEIIEGMKFDRGYISPYFINTSKGQKCEFQDAYVLLSEKKISSIQSIVPALEIANAHRKPLVIIAEDVDGEALSTLVLNRLKVGLQVVAVKAPGFGDNRKNQLKDMAIATGGAVFGEEGLTLNLEDVQPHDLGKVGEVIVTKDDAMLLKGKGDKAQIEKRIQEIIEQLDVTTSEYEKEKLNERLAKLSDGVAVLKVGGTSDVEVNEKKDRVTDALNATRAAVEEGIVLGGGCALLRCIPALDSLTPANEDQKIGIEIIKRTLKIPAMTIAKNAGVEGSLIVEKIMQSSSEVGYDAMAGDFVNMVEKGIIDPTKVVRTALLDAAGVASLLTTAEVVVTEIPKEEKDPGMGAMGGMGGGMGGGMF | 4 | 2 | 17 | – | – | 5 | 5 | 1
